From patent US10973880B2, “Compositions and methods for treating pulmonary hypertension” (Acceleron Pharma Inc., priority 2016, dated 2021)
One block for each molecule: values may come before it.

Key:
[1] = molecular target: T1, BMP10 (Homo sapiens, UniProt O95393); test: Biacore ligand affinity (Example 10); assay type: binding; details: Smad 1/5/8 ligand
T1 sequence (O95393 317-424): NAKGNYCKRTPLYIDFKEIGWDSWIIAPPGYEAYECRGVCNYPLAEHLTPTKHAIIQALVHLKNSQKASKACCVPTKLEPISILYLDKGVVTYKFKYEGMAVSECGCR
Method: (§1) The affinity of GDF traps and other ActRIIB-hFc proteins for several ligands was evaluated in vitro with a Biacore™ instrument. Kd values were obtained by steady-state affinity fit due to the very rapid association and dissociation of the complex, which prevented accurate determination of kon and koff.

[2] = molecular target: T2, BMP6 (Homo sapiens, UniProt P22004); test: Biacore ligand affinity (Example 10); assay type: binding; details: Smad 1/5/8 ligand
T2 sequence (P22004 375-513): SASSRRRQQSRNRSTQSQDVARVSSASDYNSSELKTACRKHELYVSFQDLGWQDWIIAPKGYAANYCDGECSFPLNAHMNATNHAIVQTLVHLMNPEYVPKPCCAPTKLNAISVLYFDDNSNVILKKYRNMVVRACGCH
Method: as §1

[3] = molecular target: T3, GDF8 (Homo sapiens, UniProt O14793); test: Biacore ligand affinity (Example 10); assay type: binding; details: Smad 2/3 signaling ligand
T3 sequence (O14793 267-375): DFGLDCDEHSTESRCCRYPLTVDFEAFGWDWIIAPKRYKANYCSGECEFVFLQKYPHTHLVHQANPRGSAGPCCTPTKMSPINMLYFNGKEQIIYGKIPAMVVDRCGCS
Method: as §1

[4] = pharmacokinetic studies in rats; assay type: in vivo, rat; details: initial administration 30 mg/kg
Method: The ActRIIA-hFc was very stable in pharmacokinetic studies. Rats were dosed with 1 mg/kg, 3 mg/kg, or 10 mg/kg of ActRIIA-hFc protein, and plasma levels of the protein were measured at 24, 48, 72, 144 and 168 hours. In a separate study, rats were dosed at 1 mg/kg, 10 mg/kg, or 30 mg/kg.

[5] = molecular target: T4, activin B (Homo sapiens, UniProt P09529); test: similar binding assay (Biacore); details: CHO-cell-expressed material
T4 sequence (P09529 293-407): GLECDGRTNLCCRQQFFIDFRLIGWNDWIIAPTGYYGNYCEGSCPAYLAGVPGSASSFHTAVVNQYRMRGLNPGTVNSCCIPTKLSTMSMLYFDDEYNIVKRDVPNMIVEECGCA

[6] = pharmacokinetics in cynomolgus monkeys; assay type: in vivo, cynomolgus monkey; details: initial administration 10 mg/kg
[7] = tested on: activin; details: see U.S. Pat. No. 7,842,663; cited from earlier work
[8] = molecular target: T5, GDF11 (Homo sapiens, UniProt O95390); details: see U.S. Pat. No. 7,842,663; cited from earlier work
T5 sequence (O95390 299-407): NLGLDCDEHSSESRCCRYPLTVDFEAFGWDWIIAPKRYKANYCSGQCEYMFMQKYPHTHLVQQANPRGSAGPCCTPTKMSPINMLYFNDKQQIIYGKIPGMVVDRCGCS

[9] = molecular target: T4, activin B; test: A-204 reporter gene assay, pGL3(CAGA)12 luciferase; assay type: cell-based; design: host or cells: exogenous factor added to A-204 cells (human rhabdomyosarcoma); details: Example 13
Excerpt: (§2) In addition, an A-204 Reporter Gene Assay was used to evaluate the effects of ALK4-Fc:ActRIIB-Fc heterodimer and ActRIIB-Fc:ActRIIB-Fc homodimer on signaling by activin A, activin B, GDF11, GDF8, BMP10, and BMP9. Cell line: Human Rhabdomyosarcoma (derived from muscle). Reporter vector: pGL3(CAGA)12 (as described in Dennler et al, 1998, EMBO 17: 3091-3100). The CAGA12 motif is present in TGFβ responsive genes (PAI-1 gene), so this vector is of general use for factors signaling through Smad2 and 3. An exemplary A-204 Reporter Gene Assay is outlined below. • Day 1: Split A-204 cells into 48-well plate. • Day 2: A-204 cells transfected with 10 ug pGL3(CAGA)12 or pGL3(CAGA)12(10 ug)+pRLCMV (1 ug) and Fugene. • Day 3: Add factors (diluted into medium+0.1% BSA). Inhibitors need to be pre-incubated with Factors for about one hr before adding to cells. About six hrs later, cells are rinsed with PBS and then lysed.
(§3) Following the above steps, a Luciferase assay was performed.

[10] = molecular target: T3, GDF8; test: A-204 reporter gene assay, pGL3(CAGA)12 luciferase; assay type: cell-based; design: host or cells: exogenous factor added to A-204 cells (human rhabdomyosarcoma)
Excerpt: (§4) Day 1: Split A-204 cells into 48-well plate. […]
as §2, §3

[11] = molecular target: T1, BMP10; test: Biacore-based binding assay, receptor captured with anti-Fc antibody
Method: (§5) A Biacore™-based binding assay was used to compare ligand binding selectivity of the ALK4-Fc:ActRIIB-Fc heterodimeric complex described above with that of ActRIIB-Fc and ALK4-Fc homodimer complexes. The ALK4-Fc:ActRIIB-Fc heterodimer, ActRIIB-Fc homodimer, and ALK4-Fc homodimer were independently captured onto the system using an anti-Fc antibody. Ligands were injected and allowed to flow over the captured receptor protein. Results are summarized in the table below, in which ligand off-rates (kd) most indicative of effective ligand traps are denoted in bold font.

[12] = molecular target: T2, BMP6; test: as above
Method: as §5

[13] = molecular target: T4, activin B; test: as above
Method: as §5

[14] = molecular target: T5, GDF11; test: as above
Method: as §5

[15] = molecular target: T3, GDF8; test: as above
Method: as §5

[16] = molecular target: T6, BMP9 (Homo sapiens, UniProt Q9UK05); test: as above
T6 sequence (Q9UK05 320-429): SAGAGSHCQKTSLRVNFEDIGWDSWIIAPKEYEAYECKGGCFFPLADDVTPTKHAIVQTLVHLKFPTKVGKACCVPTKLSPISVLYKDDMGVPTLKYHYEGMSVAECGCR
Method: as §5

[17] = molecular target: T7, GDF3 (Homo sapiens, UniProt Q9NR23); test: as above
T7 sequence (Q9NR23 251-364): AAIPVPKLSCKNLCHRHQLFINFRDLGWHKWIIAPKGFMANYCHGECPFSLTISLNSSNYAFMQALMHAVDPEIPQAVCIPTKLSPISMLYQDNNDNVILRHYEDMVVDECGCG
Method: as §5

[18] = molecular target: T8, activin A (Homo sapiens, UniProt P08476); test: as above
T8 sequence (P08476 311-426): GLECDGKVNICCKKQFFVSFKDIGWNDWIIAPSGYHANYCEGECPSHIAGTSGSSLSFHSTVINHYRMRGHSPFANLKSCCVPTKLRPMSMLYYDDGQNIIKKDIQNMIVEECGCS
Method: as §5

[19] = molecular target: T8, activin A; test: A-204 reporter gene assay, pGL3(CAGA)12 luciferase; assay type: cell-based
Excerpt: An A-204 reporter gene assay was used to evaluate the effects of ActRIIB-Fc proteins and GDF traps on signaling by GDF-11 and activin A. Cell line: human rhabdomyosarcoma (derived from muscle). Reporter vector: pGL3(CAGA)12 (described in Dennler et al, 1998, EMBO 17: 3091-3100). The CAGA12 motif is present in TGF-beta responsive genes (e.g., PAI-1 gene), so this vector is of general use for factors signaling through SMAD2 and 3.
Day 1: Split A-204 cells into 48-well plate.
Day 2: A-204 cells transfected with 10 ug pGL3(CAGA)12 or pGL3(CAGA)12(10 ug)+pRLCMV (1 μg) and Fugene.
Day 3: Add factors (diluted into medium+0.1% BSA). Inhibitors need to be preincubated with factors for 1 hr before adding to cells. Six hrs later, cells were rinsed with PBS and lysed.
This is followed by a luciferase assay.
as §2, §3

[20] = molecular target: T5, GDF11; test: A-204 reporter gene assay, pGL3(CAGA)12 luciferase; assay type: cell-based
Excerpt: as §4, §2, §3

[21] = molecular target: T5, GDF11; test: Biacore assay, receptor captured with anti-hFc antibody; assay type: binding
Method: (§6) Binding of certain ActRIIB-Fc proteins and GDF traps to ligands was tested in a Biacore assay.
(§7) The ActRIIB-Fc variants or wild-type protein were captured onto the system using an anti-hFc antibody. Ligands were injected and flowed over the captured receptor proteins.

[22] = molecular target: T3, GDF8; test: as above; assay type: binding
Method: as §6, §7

[23] = molecular target: T8, activin A; test: as above; assay type: binding
Method: as §6, §7

[24] = molecular target: T5, GDF11; test: ActRIIB-Fc affinity for ligand (description); assay type: binding; details: ascertained by Applicants
[25] = tested on: activin; test: ActRIIB-Fc affinity for ligand (description); assay type: binding; details: ascertained by Applicants

Molecule: ActRIIA-hFc: extracellular domain of human ActRIIa fused to a human Fc domain with a minimal linker (SEQ ID NO: 32); homodimer
- circulating levels of the drug after two weeks [4]: 30 µg/mL
- affinity for activin B ligand compared with that reported for ActRIIa-hFc expressed in human 293 cells [5]: higher affinity
- circulating levels of the drug [6]: 30 µg/mL

B1: ActRIIB(20-119)-Fc: ActRIIB-Fc fusion protein containing amino acids 20-119 of SEQ ID NO: 1 (protein)
chain: GRGEAETRECIYYNANWELERTNQSGLERCEGEQDKRLHCYASWRNSSGTIELVKKGCWLDDFNCYDRQECVATEENPQVYFCCCEGNFCNERFTHLPEA
modifications: Fc fusion, Fc no entry
- binding to activin relative to ActRIIB(20-134)-Fc [7]: reduced binding
- binding to GDF11 relative to ActRIIB(20-134)-Fc [8]: reduced binding

Further lines, with some results ahead:

- binding to BMP10 [1]: strong to intermediate binding
- binding to BMP6 [2]: strong to intermediate binding
- binding to GDF8 [3]: strong to intermediate binding
Molecule: ActRIIB(L79D 25-131)-hFc: GDF trap with truncated ActRIIB extracellular domain (residues 25-131, L79D) fused to human Fc (SEQ ID NO: 78)

- inhibition of activin B signaling [9]: potent inhibitors
- inhibition of GDF8 signaling ([10]; Example 13): potent inhibitors
- Kd [11]: 0.011 nM
- ka, BMP10 [11]: 2.3e+07 M⁻¹ s⁻¹
- kd, BMP10 [11]: 0.00026 s⁻¹
- ka, BMP6 [12]: 3.2e+07 M⁻¹ s⁻¹
- kd, BMP6 [12]: 0.0068 s⁻¹
- ka, Activin B [13]: 5.1e+06 M⁻¹ s⁻¹
- kd, Activin B [13]: 0.0001 s⁻¹
- ka, GDF11 [14]: 5e+07 M⁻¹ s⁻¹
- kd, GDF11 [14]: 0.00011 s⁻¹
- Kd ([14]; † = very low signal): 0.002 nM
- ka, GDF8 [15]: 830000 M⁻¹ s⁻¹
- kd, GDF8 [15]: 0.00023 s⁻¹
- Kd ([15]; † = very low signal): 0.28 nM
- Kd [16]: 0.077 nM
- ka, BMP9 [16]: 1.4e+07 M⁻¹ s⁻¹
- kd, BMP9 [16]: 0.0011 s⁻¹
- Kd [17]: 1.5 nM
- ka, GDF3 [17]: 1.4e+06 M⁻¹ s⁻¹
- kd, GDF3 [17]: 0.0022 s⁻¹
- ka, Activin A [18]: 1.2e+07 M⁻¹ s⁻¹
- kd, Activin A [18]: 0.00023 s⁻¹
- inhibition of activin A signaling ([19]; Example 13): potent inhibitors
- inhibition of GDF11 signaling ([20]; Example 13): potent inhibitors
B2: ActRIIB-Fc homodimer: homodimer complex of ActRIIB-Fc fusion polypeptide (protein)
chain: GRGEAETRECIYYNANWELERTNQSGLERCEGEQDKRLHCYASWRNSSGTIELVKKGCWLDDFNCYDRQECVATEENPQVYFCCCEGNFCNERFTHLPEAGGPEVTYEPPPTAPT
modifications: left off: a dimerising Fc or GST
notes: homodimer complex of ActRIIB-Fc fusion polypeptide

- inhibition of GDF-8 activity ([10]; A-204 reporter gene assay): potent inhibitor
- Koff, GDF11 [21]: 0.000113 s⁻¹
- Koff, GDF8 [22]: 3.45e-05 s⁻¹
- Koff, Activin A [23]: 0.000159 s⁻¹
- Kon, Activin A [23]: 5.94e+06 M⁻¹ s⁻¹
- affinity for GDF11 [24]: low nanomolar to high picomolar range
- inhibition of activin A activity ([19]; A-204 reporter gene assay): potent inhibitor
- inhibition of GDF-11 activity ([20]; A-204 reporter gene assay): potent inhibitor
B3: ActRIIB(20-134)-hFc: extracellular domain of human ActRIIB (20-134, R64) fused to a human Fc domain with a minimal linker (SEQ ID NO: 40) (protein)
chain: GRGEAETRECIYYNANWELERTNQSGLERCEGEQDKRLHCYASWRNSSGTIELVKKGCWLDDFNCYDRQECVATEENPQVYFCCCEGNFCNERFTHLPEAGGPEVTYEPPPTAPTGGGTHTCPPCPAPELLGGPSVFLFPPKPKDTLMISRTPEVTCVVVDVSHEDPEVKFNWYVDGVEVHNAKTKPREEQYNSTYRVVSVLTVLHQDWLNGKEYKCKVSNKALPVPIEKTISKAKGQPREPQVYTLPPSREEMTKNQVSLTCLVKGFYPSDIAVEWESNGQPENNYKTTPPVLDSDGSFFLYSKLTVDKSRWQQGNVFSCSVMHEALHNHYTQKSLSLSPGK
- affinity for activin [25]: low nanomolar to high picomolar range
